The results in this text go back to IntAct's records for PubMed 17057713.

Sequences and labels used below:
B1: A-type potassium channel modulatory protein KCNIP1 (Homo sapiens), Q9NZI2 (parent)
chain: MGAVMGTFSSLQTKQRRPSKDIAWWYYQYQRDKIEDELEMTMVCHRPEGLEQLEAQTNFTKRELQVLYRGFKNECPSGVVNEDTFKQIYAQFFPHGDASTYAHYLFNAFDTTQTGSVKFEDFVTALSILLRGTVHEKLRWTFNLYDINKDGYINKEEMMDIVKAIYDMMGKYTYPVLKEDTPRQHVDVFFQKMDKNKDGIVTLDEFLESCQEDDNIMRSLQLFQNVM
partner: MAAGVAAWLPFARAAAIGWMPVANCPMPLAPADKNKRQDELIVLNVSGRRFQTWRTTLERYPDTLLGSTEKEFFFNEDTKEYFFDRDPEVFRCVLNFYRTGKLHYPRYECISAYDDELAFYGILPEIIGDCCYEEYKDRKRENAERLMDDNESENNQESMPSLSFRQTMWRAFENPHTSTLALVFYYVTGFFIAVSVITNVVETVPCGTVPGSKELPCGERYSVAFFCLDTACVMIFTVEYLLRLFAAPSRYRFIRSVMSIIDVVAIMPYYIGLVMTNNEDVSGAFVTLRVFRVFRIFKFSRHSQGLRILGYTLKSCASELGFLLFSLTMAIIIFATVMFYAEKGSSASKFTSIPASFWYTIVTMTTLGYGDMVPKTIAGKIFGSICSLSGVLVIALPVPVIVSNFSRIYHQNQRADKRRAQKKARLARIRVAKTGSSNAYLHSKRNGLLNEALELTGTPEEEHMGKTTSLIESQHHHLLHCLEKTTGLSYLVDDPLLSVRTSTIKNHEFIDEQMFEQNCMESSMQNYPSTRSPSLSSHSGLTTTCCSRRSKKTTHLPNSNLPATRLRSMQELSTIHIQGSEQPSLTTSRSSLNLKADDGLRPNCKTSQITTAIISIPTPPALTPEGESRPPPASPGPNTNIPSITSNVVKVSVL

Variants of B1 are the subject of the test. Particulars: with kcnd3_rat Kcnd3, Q62897.
For the variant MGAVMGTFSSLQTKQRRPSKDIAWWYYQYQRDKIEDELEMTMVCHRPEGLEQLEAQTNFTKRELQVLYRGFKNECPSGVVNEDTFKQIYAQFFPHGDASTYAHYLFNAFDTTQTGSVKFEDFVTALSILLRGTVHEKLRWTFNLYAINKDGYINKEEMMDIVKAIYDMMGKYTYPVLKEDTPRQHVDVFFQKMAKNKDGIVTLDEFLESCQEDDNIMRSLQLFQNVM [D146A;D194A], the “effect of a mutation on the interaction” value is reported as “decreasing interaction strength”.
